The record followed here is patent US20260216242A1 (ALMAC DISCOVERY, published 2026).

T1: Human ALPP (leucine zipper) (human)
T1 construct: Soluble human ALPP fused to a disulphide stabilised leucine zipper and a His tag; The whole entry is the construct; also called hALPP; PLAP
T1 chain: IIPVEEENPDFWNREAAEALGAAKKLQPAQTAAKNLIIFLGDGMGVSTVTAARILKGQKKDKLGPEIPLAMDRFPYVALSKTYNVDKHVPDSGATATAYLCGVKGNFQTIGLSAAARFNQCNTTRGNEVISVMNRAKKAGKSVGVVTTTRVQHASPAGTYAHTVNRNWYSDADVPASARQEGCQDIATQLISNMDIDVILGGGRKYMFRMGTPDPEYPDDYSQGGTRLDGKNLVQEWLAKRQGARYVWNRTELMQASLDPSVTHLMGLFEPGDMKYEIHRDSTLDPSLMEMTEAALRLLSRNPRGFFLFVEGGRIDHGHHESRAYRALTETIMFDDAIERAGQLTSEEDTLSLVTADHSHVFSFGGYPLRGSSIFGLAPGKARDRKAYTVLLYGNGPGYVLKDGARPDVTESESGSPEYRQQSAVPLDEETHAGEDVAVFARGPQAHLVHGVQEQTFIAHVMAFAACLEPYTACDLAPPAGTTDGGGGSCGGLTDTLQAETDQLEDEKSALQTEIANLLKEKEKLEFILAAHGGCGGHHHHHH

B1: D10 A06-hFc (S239C + S442C), [G4S]1 linkers (Fc fusion)
chain 1: QVQLVESGGGLVQPGGSLRLSCAASGSIFSVNTMGWYRQAPGKQRDLVAVATSGGTIHYADSVKGRFTISRDNAKNTVYLQMNSLKPEDTAVYYCNLVVPYGMIAGDHDYWGQGTKVTVSSGGGGSEPKSSDKTHTCPPCPAPELLGGPCVFLFPPKPKDTLMISRTPEVTCVVVDVSHEDPEVKFNWYVDGVEVHNAKTKPREEQYNSTYRVVSVLTVLHQDWLNGKEYKCKVSNKALPAPIEKTISKAKGQPREPQVYTLPPSRDELTKNQVSLYCLVKGFYPSDIAVEWESNGQPENNYKTTPPVLDSDGSFFLYSKLTVDKSRWQQGNVFSCSVMHEALHNHYTQKSLCLSPGK
chain 2: QVHLVESGGGLVQAGGSLRLSCAASGRTFLSMGWFRQAPGKEREFVAAISWTGGSTGYADSVKGRFTISRESDKETMYLQMNSLKPEDTAVYYCAARGDVYYGGDDATRYKYWGQGTQVTVSSGGGGSEPKSSDKTHTCPPCPAPELLGGPCVFLFPPKPKDTLMISRTPEVTCVVVDVSHEDPEVKFNWYVDGVEVHNAKTKPREEQYNSTYRVVSVLTVLHQDWLNGKEYKCKVSNKALPAPIEKTISKAKGQPREPQVYTLPPSRDELTKNQVSLTCLVKGFYPSDIAVEWESNGQPENNYKTTPPVLDSDGSFFLTSKLTVDKSRWQQGNVFSCSVMHEALHNHYTQKSLCLSPGK
notes: Biparatopic heterodimer; also called #666
B2: D10 E10-hFc (S239C + S442C), [G4S]1 linkers (Fc fusion)
chain 1: QVQLVESGGGLVQPGGSLRLSCAASGSIFSVNTMGWYRQAPGKQRDLVAVATSGGTIHYADSVKGRFTISRDNAKNTVYLQMNSLKPEDTAVYYCNLVVPYGMIAGDHDYWGQGTKVTVSSGGGGSEPKSSDKTHTCPPCPAPELLGGPCVFLFPPKPKDTLMISRTPEVTCVVVDVSHEDPEVKFNWYVDGVEVHNAKTKPREEQYNSTYRVVSVLTVLHQDWLNGKEYKCKVSNKALPAPIEKTISKAKGQPREPQVYTLPPSRDELTKNQVSLYCLVKGFYPSDIAVEWESNGQPENNYKTTPPVLDSDGSFFLYSKLTVDKSRWQQGNVFSCSVMHEALHNHYTQKSLCLSPGK
chain 2: QVQLVESGGGLVQAGGSLRLSCAVSGRALSDYNIGWFRQAPGKEREFVARKTWDGSSTRYDDSVKGRFTVSIEDAKNTAYLQMSSLKTEDTAVYYCAAGRYSRARGWEYDYWGQGTQVTVSSGGGGSEPKSSDKTHTCPPCPAPELLGGPCVFLFPPKPKDTLMISRTPEVTCVVVDVSHEDPEVKFNWYVDGVEVHNAKTKPREEQYNSTYRVVSVLTVLHQDWLNGKEYKCKVSNKALPAPIEKTISKAKGQPREPQVYTLPPSRDELTKNQVSLTCLVKGFYPSDIAVEWESNGQPENNYKTTPPVLDSDGSFFLTSKLTVDKSRWQQGNVFSCSVMHEALHNHYTQKSLCLSPGK
notes: Biparatopic heterodimer; also called #668
B3: A06 E06-hFc (S239C + S442C), [G4S]1 linkers (Fc fusion)
chain 1: QVHLVESGGGLVQAGGSLRLSCAASGRTFLSMGWFRQAPGKEREFVAAISWTGGSTGYADSVKGRFTISRESDKETMYLQMNSLKPEDTAVYYCAARGDVYYGGDDATRYKYWGQGTQVTVSSGGGGSEPKSSDKTHTCPPCPAPELLGGPCVFLFPPKPKDTLMISRTPEVTCVVVDVSHEDPEVKFNWYVDGVEVHNAKTKPREEQYNSTYRVVSVLTVLHQDWLNGKEYKCKVSNKALPAPIEKTISKAKGQPREPQVYTLPPSRDELTKNQVSLYCLVKGFYPSDIAVEWESNGQPENNYKTTPPVLDSDGSFFLYSKLTVDKSRWQQGNVFSCSVMHEALHNHYTQKSLCLSPGK
chain 2: QVHLVESGGGLVQAGGSLRLSCAASRRSFSEYAMGWFRQAPGKEREFVAAIGWSGVIEYADSVKGRFTISRDNAKDTVYLQMNSLKPEDTAVYYCAAGLGIRVVSQTPAYWGQGTQVTVSSGGGGSEPKSSDKTHTCPPCPAPELLGGPCVFLFPPKPKDTLMISRTPEVTCVVVDVSHEDPEVKFNWYVDGVEVHNAKTKPREEQYNSTYRVVSVLTVLHQDWLNGKEYKCKVSNKALPAPIEKTISKAKGQPREPQVYTLPPSRDELTKNQVSLTCLVKGFYPSDIAVEWESNGQPENNYKTTPPVLDSDGSFFLTSKLTVDKSRWQQGNVFSCSVMHEALHNHYTQKSLCLSPGK
notes: Biparatopic heterodimer; also called #671
B4: D10 E06-hFc (S239C + S442C), [G4S]1 linkers (Fc fusion)
chain 1: QVQLVESGGGLVQPGGSLRLSCAASGSIFSVNTMGWYRQAPGKQRDLVAVATSGGTIHYADSVKGRFTISRDNAKNTVYLQMNSLKPEDTAVYYCNLVVPYGMIAGDHDYWGQGTKVTVSSGGGGSEPKSSDKTHTCPPCPAPELLGGPCVFLFPPKPKDTLMISRTPEVTCVVVDVSHEDPEVKFNWYVDGVEVHNAKTKPREEQYNSTYRVVSVLTVLHQDWLNGKEYKCKVSNKALPAPIEKTISKAKGQPREPQVYTLPPSRDELTKNQVSLYCLVKGFYPSDIAVEWESNGQPENNYKTTPPVLDSDGSFFLYSKLTVDKSRWQQGNVFSCSVMHEALHNHYTQKSLCLSPGK
chain 2: QVHLVESGGGLVQAGGSLRLSCAASRRSFSEYAMGWFRQAPGKEREFVAAIGWSGVIEYADSVKGRFTISRDNAKDTVYLQMNSLKPEDTAVYYCAAGLGIRVVSQTPAYWGQGTQVTVSSGGGGSEPKSSDKTHTCPPCPAPELLGGPCVFLFPPKPKDTLMISRTPEVTCVVVDVSHEDPEVKFNWYVDGVEVHNAKTKPREEQYNSTYRVVSVLTVLHQDWLNGKEYKCKVSNKALPAPIEKTISKAKGQPREPQVYTLPPSRDELTKNQVSLTCLVKGFYPSDIAVEWESNGQPENNYKTTPPVLDSDGSFFLTSKLTVDKSRWQQGNVFSCSVMHEALHNHYTQKSLCLSPGK
notes: Biparatopic heterodimer
B5: D10 F05-hFc (S239C + S442C), [G4S]1 linkers (Fc fusion)
chain 1: QVQLVESGGGLVQPGGSLRLSCAASGSIFSVNTMGWYRQAPGKQRDLVAVATSGGTIHYADSVKGRFTISRDNAKNTVYLQMNSLKPEDTAVYYCNLVVPYGMIAGDHDYWGQGTKVTVSSGGGGSEPKSSDKTHTCPPCPAPELLGGPCVFLFPPKPKDTLMISRTPEVTCVVVDVSHEDPEVKFNWYVDGVEVHNAKTKPREEQYNSTYRVVSVLTVLHQDWLNGKEYKCKVSNKALPAPIEKTISKAKGQPREPQVYTLPPSRDELTKNQVSLYCLVKGFYPSDIAVEWESNGQPENNYKTTPPVLDSDGSFFLYSKLTVDKSRWQQGNVFSCSVMHEALHNHYTQKSLCLSPGK
chain 2: QVQLVESGGGLVQAGGSLRLSCAASGRAFGDYNIGWFRQAPGKEREFVARRTWDGSSTRYDDSVKGRFTVSIDNAKNTAYLQMNSLKTEDTAVYYCAAGRYSRVRGWEYDYWGQGTQVTVSSGGGGSEPKSSDKTHTCPPCPAPELLGGPCVFLFPPKPKDTLMISRTPEVTCVVVDVSHEDPEVKFNWYVDGVEVHNAKTKPREEQYNSTYRVVSVLTVLHQDWLNGKEYKCKVSNKALPAPIEKTISKAKGQPREPQVYTLPPSRDELTKNQVSLTCLVKGFYPSDIAVEWESNGQPENNYKTTPPVLDSDGSFFLTSKLTVDKSRWQQGNVFSCSVMHEALHNHYTQKSLCLSPGK
notes: Biparatopic heterodimer; also called #669

The target in the assay is T1, Human ALPP (leucine zipper). Put plainly: BLI, KD app (antigen immobilised on AR2G sensor). As for the experimental part: Binding kinetics were determined using the Biolayer Interferometry (BLI) Octet K2 or R4 system (Sartorius). […] For KD apparent measurements, the ALPP proteins were immobilised in sodium acetate pH5 buffer to AR2G sensors using amine coupling. To measure 1:1 interactions, AHC biosensors were used to immobilise Fc-fused proteins. All assays were conducted in HBS-EP with a plate temperature of 25° C. Ka (M⁻¹s⁻¹), Kd (s⁻¹) and KD (nM) values were determined using Octet Data Analysis High Throughput software (Sartorius) for Biolayer Interferometry.
For orientation: In BLI a coated tip is dipped into the sample, and binding shifts an interference pattern.
B1 gave a Kd below 0.01 nM and a kon of 332000 M⁻¹ s⁻¹.

Consider B2, for which the Kd is below 0.01 nM and the on-rate constant (kon) was found to be 374000 M⁻¹ s⁻¹.

On to B3, for which the Kd was 0.0202 nM and the kon was 602000 M⁻¹ s⁻¹.

Regarding B4, the Kd is 0.048 nM and the kon was found to be 271000 M⁻¹ s⁻¹.

Turning to B5, the Kd was below 0.01 nM, the koff was below 1e-07 s⁻¹ and the kon was determined as 430000 M⁻¹ s⁻¹.

As a reminder, the kon is the second-order rate constant of association. A high value points to fast association. The koff is the rate constant with which the complex falls apart. Read a low koff as a long-lived complex.
